Reference: patent publication US20080201790A1, “Method and product for regulating cell responsiveness to external signals” (priority 1993, published 2008)

How the values were obtained:
[1] = tested on: p42 and p44 forms of MAPK; test: Phosphorylation of p42 and p44 MAPK in COS cells transfected with MEKK 1 or MEKK 3; type: cell-based; settings: forty-eight hours after transfection
Experimental: (§1) COS cells were transfected with the expression plasmid pCVM5 ligated to cDNA clones encoding either MEKK 1 or MEKK 3 protein, or a control pCVM5 plasmid lacking MEKK cDNA inserts. Forty-eight hours after transfection, the COS cells were lysed and the lysate fractionated on a Mono Q FPLC column using conditions described in Example 4. The fractions were analyzed for tyrosine phosphorylation of MAP kinase-like enzymes using the kinase assay described in Example 4.

MAPK = MAPK activity in COS cells transfected with MEKK or Raf (Mono Q FPLC fractions); type: cell-based; settings: overexpression in COS1 cells, deprived of serum, no added growth factor
Experimental: COS cells in 100-mm culture dishes were transfected with either the pCVMV5 expression vector alone (1 μg: control) or the pCVMV5 MEKK construct (1 μg: MEKK). After 48 hours, the cells were placed in serum-free medium containing bovine serum albumin (0.1 percent) for 16 to 18 hours to induce quiescence. […] After centrifugation for 10 minutes at maximum speed in a microfuge, COS cell lysates containing 0.5 to 1 mg of soluble protein were subjected to FPLC on a MONO Q column, and eluted fractions were assayed for MAPK activity according to the method described in Heasley et al., p. 545, 1992, Mol. Biol. Cell, Vol. 3.
COS cells were prepared using the method described in Example 3. […] FPLC MONO Q ion-exchange column fractions were prepared as described in Example 3 and assayed for MAPK activity according to the method described in Heasley et al., ibid.

p38 MAPK = test: Tyrosine phosphorylation of p38 MAPK in COS cells transfected with MEKK 1 or MEKK 3; type: cell-based; settings: forty-eight hours after transfection
Experimental: as §1

GST-Ras^V12 = test: Binding of COS cell-expressed MEKK1 proteins to GST-Ras^V12 agarose; settings: COS cell lysates, immunoblot
Description: COS cells were transiently transfected by the DEAE-dextran protocol as generally described in Example 3. Cos cells were transfected with: (1) p-MEKK1 containing a nucleic acid molecule encoding MEKK1 as described in Lange-Carter et al. (Science 260:315-319, […]); (2) p-MEKKNH2 containing a nucleic acid molecule that encodes a 858 base pair Pvull(682)-Ncol(1541) restriction digest fragment of the amino terminus of MEKK1 ligated into pCMV5; (3) p-MEKKCOOH containing a nucleic acid molecule that encodes a 1435 base pair Ncol(1541)-Sspl(2976) restriction digest fragment that includes the entire kinase domain of MEKK1 ligated into pCMV5; (4) pCMV5 without insert; or (5) p-C4Raf containing a nucleic acid molecule that encodes the amino terminus of Raf-1 ligated into pCMV5. COS cells expressing the various MEKK1 proteins were […] COS cells expressing the various MEKK1 proteins were lysed in EB (1% Triton X-100, 10 mM Tris HCl [pH 7.4], 5 mM EDTA, 50 mM NaCl, 50 mM NaF, 0.1% bovine serum albumin, 0.2 U/ml aprotinin, 1 mM phenylmethylsulfonyl fluoride and 2 mM Na3 VO4). The lysates were separated into two equal parts for separate binding reactions. Half of the lysate was incubated with GST agarose (1.5 μg) while half of the lysate was incubated with GST-Ras^V12 agarose (1.5 μg) (purchased from UBI) for 1 hr at 4° C. The GST-Ras^V12 was preincubated at 30° C. for 30 min with 1 mM nucleotide (GDP or GTPγS). The nucleotide binding reaction was stopped by adding MgCl2 to a final concentration of 20 mM. After the 1 hr binding reaction the agarose beads were pelleted at 2000 rpm for 2 min and washed 3 times with PBS+1.0% Triton X-100. The washed agarose beads were boiled in Laemmli SDS sample buffer and the proteins resolved by SDS polyacrylamide gel electrophoresis. Proteins were transferred onto nitrocellulose for immunoblotting with antibodies specific for an NH2 terminal fusion protein (described in Example 1) or a COOH terminal peptide (described in Example 1).

MEK-1 = test: Phosphorylation of catalytically inactive MEK-1 by Mono Q fractions of MEKK-transfected COS cells; type: biochemical, mouse
Experimental: A cDNA encoding MEK-1 was obtained from mouse B cell cDNA templates with the polymerase chain reaction and oligodeoxynucleotide primers corresponding to portions of the 5′ coding region and 3′ untranslated region of MEK-1. […] Lysates from COS cells transfected with MEKK or mock-transfected (control) were subjected to FPLC on a Mono Q column as described above. […] Reactions were stopped by the addition of 5×SDS sample buffer (10 μl), 1×SDS buffer contains 2 percent SDS, 5 percent glycerol, 62.5 mM tris-HCl (pH 6.8), 5 percent β-mercaptoethanol, and 0.001 percent bromophenol blue. The samples were boiled for 3 minutes and subjected to SDS-PAGE and autoradiography.
Phosphorylation of kinase MEK-1 and MEKK was visable after 5 minutes and maximal after about 20 minutes. The time-dependent increase in MEKK phosphorylation correlated with a decreased mobility of the MEKK protein during SDS-PAGE. […] The slowly migrating species of MEKK were also detected by immunoblotting. Thus, expression of MEKK appears to activate MAPK by activating MEK.

[2] = fraction 22, 0.15 μg catalytically inactive MEK-1

B1: MEKK 1: MEK kinase 1 protein, SEQ ID No. 2 / 4 (protein)
chain: MVTAVPAVFSKLVTMLNASGSTHFTRMRRRLMAIADEVEIAEVIQLGVEDTVDGHQDSLQAVAPTSCLENSSLEHTVHREKTGKGLSATRLSASSEDISDRLAGVSVGLPSSTTTEQPKPAVQTKGRPHSQCLNSSPLSHAQLMFPAPSAPCSSAPSVPDISKHRPQAFVPCKIPSASPQTQRKFSLQFQRNCSEHRDSDQLSPVFTQSRPPPSSNIHRPKPSRPVPGSTSKLGDATKSSMTLDLGSASRCDDSFGGGGNSGNAVIPSDETVFTPVEDKCRLDVNTELNSSIEDLLEASMPSSDTTVTFKSEVAVLSPEKAENDDTYKDDVNHNQKCKEKMEAEEEEALAIAMAMSASQDALPIVPQLQVENGEDIIIIQQDTPETLPGHTKAKQPYREDAEWLKGQQIGLGAFSSCYQAQDVGTGTLMAVKQVTYVRNTSSEQEEVVEALREEIRMMGHLNHPNIIRMLGATCEKSNYNLFIEWMAGGSVAHLLSKYGAFKESVVINYTEQLLRGLSYLHENQIIHRDVKGANLLIDSTGQRLRIADFGAAARLASKGTGAGEFQGQLLGTIAFMAPEVLRGQQYGRSCDVWSVGCAIIEMACAKPPWNAEKHSNHLALIFKIASATTAPSIPSHLSPGLRDVAVRCLELQPQDRPPSRELLKHPVFRTTW
[1]
  phosphorylation of p42 and p44 MAPK: does induce phosphorylation of p42 and p44 MAPK
MAPK
  MAPK activity relative to control cells transfected with plasmid lacking a MEKK 1 cDNA insert: four to five times greater
p38 MAPK
  phosphorylation of p38 MAPK: only induces weak phosphorylation of p38 MAPK
GST-Ras^V12
  binding to GST-Ras^V12(GTPγS) relative to GST-Ras^V12(GDP): at least 5 fold
  binding to GST-Ras^V12 (in words): capable of binding GST-Ras^V12 in a GTP dependent manner
MEK-1; Mono Q fractions of transfected COS cells
  phosphorylation of MEK-1: capable of phosphorylating MEK-1
MEK-1; [2]
  time at which phosphorylation of kinase MEK-1 and MEKK was visible: 5 min
  time of maximal phosphorylation of kinase MEK-1 and MEKK: about 20 minutes
